From the domain aggregation screens of Martell et al. (2025)

Test: soluble fraction after stress (log2 fold change); higher = more stays soluble; pooled small domains, quantitative proteomics
Details: stress: 50 degC
Outline: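 After stress at 50°C, the amount of each protein still soluble was measured. This was done on pooled custom libraries of small protein domains, using high-throughput quantitative proteomics. The figure given is a base-two log fold change and stands for aggregation propensity, with higher values meaning more protein stays in solution.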

Sequence	soluble fraction (log2)
HMRMLLKELLIQYEVKNDKSHVEVAKEVGVSLSTYYRWLNGESLHLKKRTIDRLSEVLHYDINQVVEES	-2.35
HMSGIESIVIPLKGLDFDMISSTLTPQLKQAIKYDKQSDSIILVGTNAKVNIIAKQVNAMVEVYKLKT	-0.444
HMEFYYSDLVGMIVYDTGGNELGKVQAVLNHGAGDLLEIHGVNLKTSILIPFTKEAVPTVDIAARRIVTDP	0.0733
HMELPMGTQLPPERELAQQMQVSRAVVNGGLAELAQQGFLEVRPRQGTFVADYRRKGNLSTLIAIMEY	0.0153
HMGSEISYSEFLNRVEQGQVAAVRLDGEQIFITGPTGEAYQTIQPRNTDVLPDLREAGVEIQAAPQ	-0.0723
HMKDNIRSILEDIPNIGPGRRRALLKHFGSIEAIRRASLEDLIKVDGMNRNAALSIMEYFGM	-0.159
HMAPRDKADKYVAAGIAEELVPILQKVGYYLVTDLKDVKAQKIQQQIGEIIKKYKLDIEKPSVQDIEGWN	0.0612
HMVEMSNMELVREQYFQNLIYNVGDWVKDSKTEITGEVVKRGTNYLTIVQEDFTLHKVWLEDAESME	-0.581
HMKDGAKYFQLFGLLKNEINRGIYQSGQKIPGENELAEKYGMSRQTVRQALSLLEQESLIERRQGSGTYVR	0.108
HMSEQMQVGELVFQLHRKAIKNLHINVLPPDGFVRVSAPQAMTETAIRTAVISRLPWIRRQQQAFAAQ	-2.12
HMNTGLSEREHEIAQLVLQGRTYAEIGAELFISPRTAEHHIGQIRRRLAATSRSDLLAKLRVAMNTTEGAG	-1.27
HMHSPTFYVHVVGQVKVPGVYELEVGSRLFDAVIAAGGFKDDADQASVNLARPLSDGEQIVVLKLGDQ	-0.251
HMLRPMVAILNKNISKGQVISEDYIKFEVRPERQIHGAYHDISEVLGRKTKNNIAAGTILKVRHLDT	-0.201
HMFNGDPTTRESILASARAEIDQYGIIGLRLSAVAEKAQVSVPLIYKYFEDRDGLLAVVLGDW	-1.27
HMESILDDFPGLGAVRRAALLEHFGDIDRLRAASAVEITEVDGFGDVLARELHDFLHRPKPDA	-0.455
HMGFDTSMNKYTIDDLLKLLELGSNPSQAEIVNKITNFNTIFVDNSGVIQFLNNIQDKLLDNFK	-0.396
HMGDPEYFKKQLGDFMDRFNITSEDIKNLSIAGAINRMMNNAEGEDKTVLSKLLETVNKSGVGNLPAKTI	0.0622
HMATAEETTPLWARNRLSHAIFGPGSVTGEDERSFEVAFDNGDTLNFSKKSAHLYFTAMSSR	-0.0942
HMDQEDAYMQVRQVFDTLLVSELSKRIFAWRFFEGKSFAEWPGAESQKFLYDTFNRILLIISAKIRRKNA	-0.0448
HMANKTVPNVSGKTVAEARAIIENQSLQVGEEKEEYSDSVAEGYIIRTNPTAGSQKKEQSKIDLVVSKG	0.203
HMDTRQFWEQWVADEIRTFEHKDRKQLFGWFEGNKPKLGQMKKLGYGDLLTKVQTSWDEIYQQKE	0.124
HMREISSDELHSLFSADQRGDLVINETTRLSIEKLYALHTPEEREAKVNELSGVLPSEAHRQLVHFLDYFD	-1.26
HMATSNDTQITGSLALRFDGSGDTFTVNVNGDDKLEINTEGTVIYKPLTTAPTYVSGGLFFSSSGDFYVG	-0.0386
HMELLSGTVEKVLTSGVLVKLPGGAIGFIPNSEMGTPRGTNHGKMFPAGTPLQVMVVEVNQDRGRITLSR	-1.45
HMNPHGVAIIDVRKGKASTLRSLATSVRSLGEWDQLKIPIFNLESLTSLVLWHGLDAIVKEPESLQSNLIL	-0.62
HMQISGIHLYERRITKDDEWAERKLSEISLAGSLVILILRNEHVVIPNGETVLKENDLLYISD	-2.93
HMDSTTHALALVRTLPRDQAEAVLLRVVADLDYADVAEIMGRSPGAVRVLVHRGLRRLEQELATRRT	-0.465
HMGEYGVLWYLLTKKEAVSAGELKEKLHVVPGRMTDILTALEKKGLIIRQKNKTDKRVVDVVLTKEGEKEA	-0.471
HMIAVLEEGSRFRAINDISGKPFGPEMIIKNGQVIAAGKKILTKPKKLIGKKEGTKFNISGKEYVIKDI	-0.614
HMAEVPDLRNKTQQEAEAELTNHNLKLGNVTEEYSATVEAGRVISQSTSYGTKVLEGSSVDITISKGPEPT	-0.0123
